The text below walks through data of patent publication US20060177448.

The target in one data set is gDHER2(DIV)-IgG (UniProt P04626).

As to “purified catalytic domain of MT4-MMP (MMP-19)”, the “in vitro HER2 cleavage (sheddase) assay, stained gel” value with gDHER2(DIV)-IgG is given as “All MT-MMPs except MMP-14 efficiently cleave gDHER2(DIV)-IgG substrate”. Take “MMP-15 (MT2-MMP), construct not specified at that place”: the “in vitro cleavage of HER-Fc proteins” value with other HER receptors is “MMP-15 does not clip other HER receptors”.

As for “purified catalytic domain of MT2-MMP (MMP-15)”, in the data set with gDHER2(DIV)-IgG, the “in vitro HER2 cleavage (sheddase) assay, stained gel” value is recorded as “All MT-MMPs except MMP-14 efficiently cleave gDHER2(DIV)-IgG substrate”. Still for that read-out and setting: in the case of “purified catalytic domain of MT3-MMP (MMP-16)” it was “All MT-MMPs except MMP-14 efficiently cleave gDHER2(DIV)-IgG substrate”.
